Reference: publication PMC6396743, “Two membrane-bound transcription factors regulate expression of various type-IV-pili surface structures in Sulfolobus acidocaldarius”

T1: ArnR1 (Sulfolobus acidocaldarius, UniProt Q4J9L2 1-269)
T1 sequence: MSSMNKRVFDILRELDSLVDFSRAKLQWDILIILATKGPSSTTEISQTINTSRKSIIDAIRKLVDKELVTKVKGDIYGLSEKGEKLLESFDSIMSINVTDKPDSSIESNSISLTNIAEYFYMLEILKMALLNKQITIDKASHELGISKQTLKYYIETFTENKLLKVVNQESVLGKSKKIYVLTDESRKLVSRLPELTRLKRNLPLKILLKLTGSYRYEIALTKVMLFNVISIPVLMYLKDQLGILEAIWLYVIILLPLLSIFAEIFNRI

B1: pupsX (dsDNA)
DNA 1: TCTCCCATATTACTATTGCCTATCTCGTTAATAGTATTTTC
DNA 2: GAAAATACTATTAACGAGATAGGCAATAGTAATATGGGAGA
B2: pflaB41 (dsDNA)
DNA 1: ACGTCGATCAGCAGTCGAAAAATTGTGATTTTTGGTCGAAG
DNA 2: CTTCGACCAAAAATCACAATTTTTCGACTGCTGATCGACGT
B3: pSaci_2122 (dsDNA)
DNA 1: ATAATTATTACTCAGCGTTTATAACGTTTAACATGTTAAAA
DNA 2: TTTTAACATGTTAAACGTTATAAACGCTGAGTAATAATTAT
B4: pflaB ArnR box-2 (dsDNA)
DNA 1: AACGTCGATCAGCAGTCGAA
DNA 2: TTTCGACTGCTGATCGACGTT
B5: paapF (dsDNA)
DNA 1: GTCTAAAGCCATAAAGATGAGCTTATTTTCATAGATTTAAGT
DNA 2: ACTTAAATCTATGAAAATAAGCTCATCTTTATGGCTTTAGAC
B6: pflaB ArnR box-1 (dsDNA)
DNA 1: ATTGTGATTTTTGGTCGAAG
DNA 2: CTTCGACCAAAAATCACAAT

Target: T1, ArnR1
Test: MST; MST: 2.5 nM labeled dsDNA, 0.156-18 uM protein, 24 C, 10 min incubation; DNA annealed in 20 mM Tris/HCl pH 8, 200 mM NaCl, 0.05% DDM; protein in 20 mM Tris/HCl
Conditions: protein: recombinant, tags: N-terminal His10
[1] = label: 5' Alexa Fluor 647, blunt

Binder	binding result [1]	other results
B1	–	binding result (label: Alexa Fluor 647, blunt): no binding
B2	–	Kd [1]: 3.31 µM
B3	no binding	–
B4	–	binding result (label: 5' Alexa Fluor 647, 5' overhang 1 nt on strand 2 as printed): no binding
B5	no binding	–
B6	no binding	–
